Test results reported in patent US20120207777A1 (Novartis, published 2012).

Biological target: the molecule itself
Assay: gel filtration and gel analysis with and without DTT (self-association)

B1: Recombinant His-tagged AcfD (orf3526) from strain IHE3034 without a leader peptide (other)
chain: CDGGGSGSSSDTPSVDSGSGTLPEVKPDPTPTPEPTPEPTPDPEPTPDPTPDPEPTPEPEPEPVPTKTGYLTLGGSQRVTGATCNGESSDGFTFTPGNTVSCVVGSTTIATFNTQSEAARSLRAVDKVSFSLEDAQELANSENKKTNAISLVTSSDSCPADAEQLCLTFSSVVDRARFEKLYKQIDLATDNFSKLVNEEVENNAATDKAPSTHTSTVVPVTTEGTKPDLNASFVSANAEQFYQYQPTEIILSEGQLVDSLGNGVAGVDYYTNSGRGVTDENGKFSFSWGETISFGIDTFELGSVRGNKSTIALTELGDEVRGANIDQLIHRYSTTGQNNTRVVPDDVRKVFAEYPNVINEIINLSLSNGATLDEGDQNVVLPNEFIEQFKTGQAKEIDTAICAKTDGCNEARWFSLTTRNVNDGQIQGVINKLWGVDTNYQSVSKFHVFHDSTNFYGSTGNARGQAVVNISNSAFPILMARNDKNYWLAFGEKRAWDKNELAYITEAPSIVQPENVTRDTATFNLPFISLGQVGEGKLMVIGNPHYNSILRCPNGYSWGGGVNSKGECTLSGDSDDMKHFMQNVLRYLSNDIWQPNTKSIMTVGTNLENVYFKKAGQVLGNSAPFAFHEDFTGITVKQLTSYGDLNPEEIPLLILNGFEYVTQWSGDPYAVPLRADTSKPKLTQQDVTDLIAYLNKGGSVLIMENVMSNLKEESASSFVRLLDAAGLSMALNKSVVNNDPQGYPDRVRQRRATGIWVYERYPAADGAQPPYTIDPNTGEVTWKYQQDNKPDDKPKLEVASWQEEVEGKQVTRYAFIDEAEYTTEESLEAAKAKIFEKFPGLQECKDSTYHYEINCLERRPGTDVPVTGGMYVPRYTQLNLDADTAKAMVQAADLGTNIQRLYQHELYFRTKGSKGERLNSVDLERLYQNMSVWLWNDTKYRYEEGKEDELGFKTFTEFLNCYANDAYAGGTKCSADLKKSLVDNNMIYGDGSSKAGMMNPSYPLNYMEKPLTRLMLGRSWWDLNIKVDVEKYPGSVSAKGESVTENISLYSNPTKWFAGNMQSTGLWAPAQQDVTIKSSASVPVTVTVALADDLTGREKHEVALNRPPRVTKTYTLEANGEVTFKVPYGGLIYIKGDSKDDVSANFTFTGVVKAPFYKDGEWKNDLDSPAPLGELESASFVYTTPKKNLEASNFTGGVAEFAKDLDTFASSMNDFYGRNDEDGKHRMFTYKNLTGHKHRFTNDVQISIGDAHSGYPVMNSSFSTNSTTLPTTPLNDWLIWHEVGHNAAETPLNVPGATEVANNVLALYMQDRYLGKMNRVADDITVAPEYLDESNGQAWARGGAGDRLLMYAQLKEWAEENFDIKQWYPDGELPKFYSDRKGMKGWNLFQLMHRKARGDDVGNSTFGGKNYCAESNGNAADTLMLCASWVAQADLSEFFKKWNPGASAYQLPGATEMSFQGGVSSSAYSTLASLKLPKPEKGPETINKVTEHKMSAE
notes: Expressed without the leader peptide; also called 3526 (his tag, leader peptide removed); not shown: His tag
B1: binds.
